The source of these data is publication PMC11574245, “Transplacental SARS-CoV-2 protein ORF8 binds to complement C1q to trigger fetal inflammation” (The EMBO Journal, 2024).

The assay addresses T1, C1q Human protein (human, UniProt P02745 23-245; P02746 28-253; P02747 29-245).
T1 construct: human complement C1q subcomponent subunit A (A chain of the C1q complex); human complement C1q subcomponent subunit B (B chain of the C1q complex); human complement C1q subcomponent subunit C (C chain of the C1q complex); The methods call it recombinant human C1q; also called human C1q; purified human C1q protein; source: bought: Complement Technology (Cat. A099); copies: 6 + 6 + 6
The assay can be described thus: ELISA; plates coated with each of 28 ORF8 peptides (1 mM in carbonate buffer 50 mM pH 9.6, overnight 2-8 °C); human C1q (5, 10, 25 or 100 nM in 3% BSA/TBST) 2 h at room temperature; detected with sheep polyclonal anti-C1Q-HRP. The following applies: both partners purified. Background: ELISA stands for enzyme-linked immunosorbent assay.

T1 sequence (P02745 23-245, chain 1 of 3): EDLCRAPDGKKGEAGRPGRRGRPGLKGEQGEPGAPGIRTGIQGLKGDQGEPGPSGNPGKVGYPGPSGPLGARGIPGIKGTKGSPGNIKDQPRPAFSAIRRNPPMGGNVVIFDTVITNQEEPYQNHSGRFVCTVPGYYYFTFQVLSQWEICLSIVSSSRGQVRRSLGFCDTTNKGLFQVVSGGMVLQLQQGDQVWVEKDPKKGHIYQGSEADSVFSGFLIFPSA
T1 sequence (P02746 28-253, chain 2 of 3): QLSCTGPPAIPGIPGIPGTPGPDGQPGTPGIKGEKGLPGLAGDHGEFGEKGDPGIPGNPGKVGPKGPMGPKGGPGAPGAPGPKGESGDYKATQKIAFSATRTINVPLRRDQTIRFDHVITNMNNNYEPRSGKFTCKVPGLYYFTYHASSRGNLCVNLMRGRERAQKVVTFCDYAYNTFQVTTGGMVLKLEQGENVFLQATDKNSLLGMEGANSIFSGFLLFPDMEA
T1 sequence (P02747 29-245, chain 3 of 3): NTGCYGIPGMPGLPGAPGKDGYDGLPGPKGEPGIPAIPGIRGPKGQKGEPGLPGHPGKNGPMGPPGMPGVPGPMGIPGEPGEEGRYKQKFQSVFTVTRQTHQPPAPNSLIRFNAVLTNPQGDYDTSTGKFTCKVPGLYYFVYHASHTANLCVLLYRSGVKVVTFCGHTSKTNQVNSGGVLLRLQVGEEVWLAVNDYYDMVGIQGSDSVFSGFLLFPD

B1: SARS-CoV-2 ORF8 peptide #19 (Y73-T87) (peptide)
peptide: YIDIGNYTVSCLPFT
B1: the binding result is “binds”.

B2: SARS-CoV-2 ORF8 peptide #25 (S97-Y111) (peptide)
peptide: SLVVRCSFYEDFLEY
With B2, the binding result is listed as “binds”.

B3: SARS-CoV-2 ORF8 peptide #10 (C37-A51) (peptide)
peptide: CPIHFYSKWYIRVGA
With B3, the binding result is listed as “binds”.
